# B1: Complement receptor type 2 (Homo sapiens), P20023 (parent)
# chain: MGAAGLLGVFLALVAPGVLGISCGSPPPILNGRISYYSTPIAVGTVIRYSCSGTFRLIGEKSLLCITKDKVDGTWDKPAPKCEYFNKYSSCPEPIVPGGYKIRGSTPYRHGDSVTFACKTNFSMNGNKSVWCQANNMWGPTRLPTCVSVFPLECPALPMIHNGHHTSENVGSIAPGLSVTYSCESGYLLVGEKIINCLSSGKWSAVPPTCEEARCKSLGRFPNGKVKEPPILRVGVTANFFCDEGYRLQGPPSSRCVIAGQGVAWTKMPVCEEIFCPSPPPILNGRHIGNSLANVSYGSIVTYTCDPDPEEGVNFILIGESTLRCTVDSQKTGTWSGPAPRCELSTSAVQCPHPQILRGRMVSGQKDRYTYNDTVIFACMFGFTLKGSKQIRCNAQGTWEPSAPVCEKECQAPPNILNGQKEDRHMVRFDPGTSIKYSCNPGYVLVGEESIQCTSEGVWTPPVPQCKVAACEATGRQLLTKPQHQFVRPDVNSSCGEGYKLSGSVYQECQGTIPWFMEIRLCKEITCPPPPVIYNGAHTGSSLEDFPYGTTVTYTCNPGPERGVEFSLIGESTIRCTSNDQERGTWSGPAPLCKLSLLAVQCSHVHIANGYKISGKEAPYFYNDTVTFKCYSGFTLKGSSQIRCKADNTWDPEIPVCEKETCQHVRQSLQELPAGSRVELVNTSCQDGYQLTGHAYQMCQDAENGIWFKKIPLCKVIHCHPPPVIVNGKHTGMMAENFLYGNEVSYECDQGFYLLGEKKLQCRSDSKGHGSWSGPSPQCLRSPPVTRCPNPEVKHGYKLNKTHSAYSHNDIVYVDCNPGFIMNGSRVIRCHTDNTWVPGVPTCIKKAFIGCPPPPKTPNGNHTGGNIARFSPGMSILYSCDQGYLLVGEALLLCTHEGTWSQPAPHCKEVNCSSPADMDGIQKGLEPRKMYQYGAVVTLECEDGYMLEGSPQSQCQSDHQWNPPLAVCRSRSLAPVLCGIAAGLILLTFLIVITLYVISKHRARNYYTDTSQKEAFHLEAREVYSVDPYNPAS
# Variants of: B1
# Conditions: with co3_human C3, P01024
# co3_human C3, P01024, sequence (P01024 whole entry): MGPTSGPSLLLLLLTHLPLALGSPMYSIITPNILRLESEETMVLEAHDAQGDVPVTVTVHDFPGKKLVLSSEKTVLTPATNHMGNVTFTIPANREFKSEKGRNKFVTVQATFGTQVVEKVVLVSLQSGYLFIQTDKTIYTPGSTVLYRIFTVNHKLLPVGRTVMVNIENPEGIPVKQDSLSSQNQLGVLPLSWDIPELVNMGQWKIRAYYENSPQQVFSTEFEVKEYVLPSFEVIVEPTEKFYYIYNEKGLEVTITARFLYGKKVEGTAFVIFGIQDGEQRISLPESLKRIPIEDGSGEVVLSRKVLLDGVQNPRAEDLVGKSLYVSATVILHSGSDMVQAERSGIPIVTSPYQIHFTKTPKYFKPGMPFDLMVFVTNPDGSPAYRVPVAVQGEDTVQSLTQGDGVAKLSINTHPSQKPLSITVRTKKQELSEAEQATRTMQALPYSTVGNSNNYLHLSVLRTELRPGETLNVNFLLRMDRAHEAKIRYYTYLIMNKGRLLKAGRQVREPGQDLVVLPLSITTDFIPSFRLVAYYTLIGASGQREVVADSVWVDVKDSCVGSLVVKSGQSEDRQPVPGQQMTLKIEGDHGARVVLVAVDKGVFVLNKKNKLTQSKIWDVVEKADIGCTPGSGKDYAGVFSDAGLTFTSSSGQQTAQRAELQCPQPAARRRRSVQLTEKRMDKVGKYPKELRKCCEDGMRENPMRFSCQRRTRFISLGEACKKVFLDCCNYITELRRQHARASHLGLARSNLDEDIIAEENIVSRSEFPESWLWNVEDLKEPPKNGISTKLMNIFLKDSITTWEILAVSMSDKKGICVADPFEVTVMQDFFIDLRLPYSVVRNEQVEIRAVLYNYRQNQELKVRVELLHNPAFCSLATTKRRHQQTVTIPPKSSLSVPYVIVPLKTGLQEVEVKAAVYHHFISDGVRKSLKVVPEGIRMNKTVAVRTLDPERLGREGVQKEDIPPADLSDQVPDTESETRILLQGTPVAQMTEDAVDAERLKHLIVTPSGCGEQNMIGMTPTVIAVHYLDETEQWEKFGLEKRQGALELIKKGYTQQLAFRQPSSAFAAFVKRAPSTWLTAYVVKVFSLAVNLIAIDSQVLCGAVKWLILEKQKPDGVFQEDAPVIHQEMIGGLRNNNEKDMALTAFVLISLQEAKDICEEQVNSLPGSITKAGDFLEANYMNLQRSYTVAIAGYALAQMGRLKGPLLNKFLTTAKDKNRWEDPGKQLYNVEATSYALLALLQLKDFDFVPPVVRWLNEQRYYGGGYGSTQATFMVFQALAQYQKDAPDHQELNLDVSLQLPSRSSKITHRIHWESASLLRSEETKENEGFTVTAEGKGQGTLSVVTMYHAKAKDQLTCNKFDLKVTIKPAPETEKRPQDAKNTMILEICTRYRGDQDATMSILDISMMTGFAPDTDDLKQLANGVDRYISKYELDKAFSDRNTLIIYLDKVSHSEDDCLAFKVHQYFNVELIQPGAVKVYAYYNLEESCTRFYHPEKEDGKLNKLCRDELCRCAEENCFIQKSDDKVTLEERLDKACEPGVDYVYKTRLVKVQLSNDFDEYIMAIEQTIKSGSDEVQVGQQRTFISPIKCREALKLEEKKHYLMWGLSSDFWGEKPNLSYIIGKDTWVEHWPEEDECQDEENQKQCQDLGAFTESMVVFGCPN
row,effect of a mutation on the interaction,Variant
1,decreasing interaction,K128A
2,decreasing interaction,D112A
3,decreasing interaction,R103A

# From IntAct's records for PubMed 21527715
